Peptide text beside a SMILES is read from it.
Tests used:
Format in all cases: physicochemical
[1] = Partition of dipeptides between organic and aqueous phase as a function of percentage of deprotonation of the exchanger (FIG. 4); settings: exchanger DEHPA deprotonated to 30%
From the text: FIG. 4 is a graphic representing the solubility of dipeptides in either an organic or an aqueous phase in function of the percentage of deprotonation of an exchanger dissolved in […]. In abscissae, the percentage of deprotonation of the exchanger is represented; said abscissae are graduated from 0 to 30%. The ordinates represent a partition coefficient between the organic phase and the aqueous phase, said ordinates being graduated from 0 to 1.
The Influence of the percentage of deprotonated exchanger over the CPC purification of dipeptides GG, GY and LV is determined. […]

[2] = Partition coefficient of SF328 evaluated by TLC in different biphasic solvent systems
Procedure: Partition coefficient of SF328 was evaluated by TLC in different biphasic solvent systems. In the elution mode, it is required that the KD value of the compound of interest lies between 0.2 and 5 (preferentially about 1).

[3] = CPC run in elution mode, stability of SF328 in the solvent system; settings: MtBE/CH3CN/BuOH/Water 1% TFA (2:1:2:5, v/v), Example 54
Procedure: Only the system MtBE/CH3CN/BuOH/Water 1% TFA (2:1:2:5, v/v) was tested. The experimental conditions were: • Rotation speed: 1300 rpm. • Sample injected: 100 mg. • Elution mode: ascending. • Flow rate: 8 ml/min.
This system causes the degradation of SF328.

| peptide extraction (partition organic/aqueous phase) [1] | Compound | Evaluation KD ([2]; BuOH/Acetic acid/Water (4:1:5, v/v)) | Evaluation KD ([2]; BuOH/Acetic acid/Water (5:1:4, v/v)) | Evaluation KD ([2]; MtBE/CH3CN/BuOH/Water 1% TFA (2:1:2:5, v/v)) | Evaluation KD ([2]; MtBE/CH3CN/Water (2:2:3, v/v)) | Evaluation KD ([2]; MtBE/CH3CN/Water (3:2:5, v/v)) | Stability in the solvent system [3] |
| --- | --- | --- | --- | --- | --- | --- | --- |
| improvement | CC(C)C[C@H](N)C(=O)N[C@H](C(=O)O)C(C)C [LV, LeucylValine] (H-Leu-Val-OH) |  |  |  |  |  |  |
|  | H-Asp-Glu-Asn-Pro-Val-Val-His-Phe-Phe-Lys-Asn-Ile-Val-Thr-Pro-Arg-Thr-OH (H-DENPVVHFFKNIVTPRT-OH) [SF328] | average | poor | good | poor | average | degradation |

Reference: patent publication US20120022228A1, “PURIFICATION OF AMPHOTERIC PRODUCTS, OR OF PRODUCTS LIABLE TO BE CONVERTED INTO AMPHOTERIC PRODUCTS” (CENTRE NATIONAL DE LA RECHERCHE SCIENTIFIQUE, priority 2010, published 2012)
